Test results: the DeepSol protein solubility set

Test: soluble on expression in E. coli; label from the status in PepcDB or PDB records

| Sequence | soluble on expression in E. coli |
| --- | --- |
| MSAVALPRVSGGHDEHGHLEEFRTDPIGLMQRVRDELGDVGTFQLAGKQVVLLSGSHANEFFFRAGDDDLDQAKAYPFMTPIFGEAVVFDASPERRKEMLHNAALRGEQMKGHAATIEDQVRRMIADWGEAGEIDLLDFFAELTIYTSSACLIGKKFRDQLDGRFAKLYHELERGTDPLAYVDPYLPIESFRRRDEARNGLVALVADIMNGRIANPPTDKSDRDMLDVLIAVKAETGTPRFSADEITGMFISMMFAGHHTSSGTASWTLIELMRHRDAYAAVIDELDELYGDGRSVSFHALRQIPQLENVLKETLRLHPPLIILMRVAKGEFEVQGHRIHEGDLVAASPAISNRIPEDFPDPHDFVPARYEQPRQEDLLNRWTWIPFGAGRHRCVGAAFAIMQIKAIFSVLLREYEFEMAQPPESYRNDHSKMVVQLAQPAAVRYRRRTGVHHHH | soluble |
| MTGRIVHFEIPFDDGDRARAFYRDAFGWAIAEIPDMDYSMVTTGPVGESGMPDEPGYINGGMMQRGEVTTPVVTVDVESIESALERIESLGGKTVTGRTPVGNMGFAAYFTDSEGNVVGLWETAR | soluble |
| MGSDKIHHHHHHESDLEQVTYSSENAIPSTLSSLNDNYILESKNASQEAFTLTWSHPDLGYQASVINSLEMDVKDKNFANKVILASSKTDVSHTITVSDLNSKIMALLKVYEMETAPIGIEFRISSSISAAADTLYSNIVSTTITPYEGEPEYPAITLRGSYNGWDFTKSQKVYSVNSDNIYAAMVYFDGKAADGWKFCGTEDWSTDNWGAPESMTPEQSPVTLVSGNGGDIKAYSKNSYYLEFNNTTGELKVSKPHNSWGIVGDHNSWGSGDTMMTLETETDENNKFQYYLKATLDMSAGNKWKIRPEEKWEDDIAPGAVEGEFEDAGDGNFKVSEAGNYTIKWYFNKVTPKIIVVKNK | not soluble |
| SKGFIDQYPNYSVGLGNLRSLKGDTCNLANDVLVETNTNESFLTPLTGTLGDSLTNDDVRGFDPNRISPWAFTPENRPEALGAANSTGDGSDTAAADSDASNTAAGADSDGSAAKADAASDNQEEAAKKKETHRADQGVNGSHSRLPFNLDYRTVPVLGSWTDGKQEIAEATSSWFKLPKANDNTPLVVVSAAGSIKHKDVNGIVENGQKIVLEYGRSNTGGSLGKAEKLGELDLLDSGIDSTWRNLRIPLSDIPDDADVIRIHAKDTSLDPDEWIAFTPPRVPTMDTLANQFPASTPGLLDWAVPLQFPCQRTFNHYAGVAEIPEYRISADAKGKQSGMNFQDFAGGGVTGIAETINSSYELPSYSKNDWVRDWGSIKMYKLRTNSKGEAPDVATVDTETITRSGLWYPGRMNIDTKVTKN | not soluble |
| MGSDKIHHHHHHPVWNPDNGNGTFTNPIMWGDWPDPDVIRVGDDFYFVSTSMHYVPGCPIATSKDLVNWKMAGYAVDRYDEDARYDLKGGDRYLRGSWAATIRHHNGKFYVGFCTPSWEGEGPGHFSICIADDVKGPWERTIFPEYLYDPGLLFDDDGKVYVFHGQGTLYVTELASDAKSVKGEKVKIWDKRFKNAHEFGGGYGMEGAHAYKINGKYYLTCPAGGTEGWQICLRSDNIYGPYEHKLIMNDSGSYPPNGLHQGGMVQLKNGDWWFIIMQDRGPIGRVPHLVPVKWVDGWPMLGSGGKDIITYPKPEVGKTYPFASPATTDEFNTSSLGLQWQWNHNPDNSRWSLKERKGHMRLKASYAESLKTARNTLTQRVQGPSSEATVELDVSGLKDGNVAGFGVFEFPYAYVAVEQTNGEKKIVMCNDGQTIETIDRFEGNKIWIRARVMDVGFRAVFYYSTDGKYFLPIGNELSMGLGLVWTANRFALFNFSKEKAGEDGYTDFNWFRFTNK | not soluble |
| MELFKDIKNLGKLVRLERIFNRESEKTVIVPMDHGVSNGPIKGLIDIRKTVNDVAEGGANAVLLHKGIVRHGHRGYGKDVGLIIHLSGGTAISPNPLKKVIVTTVEEAIRMGADAVSIHVNVGSDEDWEAYRDLGMIAETCEYWGMPLIAMMYPRGKHIQNERDPELVAHAARLGAELGADIVKTSYTGDIDSFRDVVKGCPAPVVVAGGPKTNTDEEFLQMIKDAMEAGAAGVAVGRNIFQHDDVVGITRAVCKIVHENADVEEALKEIRKK | soluble |
| MVINSPEKEDTALILYTSGTTGKPKGVMLTFDNILANVDSLDVYKMYEETDVTIALLPLHHILPLLGTGVMPLLYSATIVFLEDISSVALIDAMKKYKGTMMIGVPKLWEVMHKKIMDTINSKAITRFIFKLAKKVNSLSFSKLIFKKVSEGFGGHIKFFVSGGSKLNPQITKDFYTLGIKICEGYGMTETSPIISYTPKNNIVFDSAGKLEHHHHHH | not soluble |
| MITYKNILIAVDGSHEAEWAFNRAVGVAKRNDAKLTIVNVIDSRTYSSYEVYDAQFTEKSKHFAEELLNGYKEVATNAGVKDVETRLEFGSPKSIIPKKLAHEINADLIMSGTSGLNAVERFIVGSVSESIVRHAPCDVLVVRTEELPADFQPQVATTQLREKYQN | not soluble |
| MRRTRRPRFVLMNKMDDLNLHYRFLNWRRRIREIREVRAFRYQERFKHILVDGDTLSYHGNSGEVGCYVASRPLTKDSNYFEVSIVDSGVRGTIAVGLVPQYYSLDHQPGWLPDSVAYHADDGKLYNGRAKGRQFGSKCNSGDRIGCGIEPVSFDVQTAQIFFTKNGKRVGSTIMPMSPDGLFPAVGMHSLGEEVRLHLNAELGREDDSVMMVDSYEDEWGRLHDVRVCGTLLEYLGKGKSIVDVGLAQARHPLSTRSHYFEVEIVDPGEKCYIALGLARKDYPKNRHPGWSRGSVAYHADDGKIFHGSGVGDPFGPRCYKGDIMGCGIMFPRDYILDSEGDSDDSCDTVILSPTARAVRNVRNVMYLHQEGEEEEEEEEEEEDGEEIEPEHEGRKVVVFFTRNGKIIGKKDAVVPSGGFFPTIGMLSCGEKVKVDLHPLSG | soluble |
| MAEDIFRVATVEDAPEFLELLSSAFKSVKELGIDWPSTNADLAMVTENIVNSSAFVLERNGKLISTITVRFPWESSSPPSKYPFVWWFATAPELAGQGIGDKLLTYVEERVLRDTLKAPALTLGTSARKHPWLLDMYLRRGYEVYFEHEEDGDVGVMMRKILIPEKFDATLLGIPSWT | not soluble |
| MGSDKIHHHHHHKTTTAVQLADTFAFMRQKKVLVLDLDPQTNATLALVGEERWEQADERGQTLAHLFLDLLNGTRNFNPERAIVRGASNLNTIPPEVFDQLPESAQYGRVDVLPSSIRLIDVQDRMQDIANRTNYSLSPMAVVQKYIGPLFGRYDYVLIDCPPNLGFITQNGLEVSDHYLIPTIPDRMSTYGIPQIAGKIDELRRDRDLKIRCLGVVVTKFQSNSSQHKQGLEHLPEYLRSAFAYTNEDTPPILNTVMPQTNASAEAMLFERDVRNYPVKYGSGAVAGQAAYKYGLDLAAEVQALLGDEDEA | not soluble |
| VTVGDQNGMGPSSGYVTRITNDAREDDMENNMKEVSSMIGNLRNMAIDMGNEIGSQNRQVDRIQQKAESNESRIDEANKKATKLLKN | soluble |
| MSLPPSQSDRDPFSVTMCHSTLASLPLVYACSGCSSVAQLANTFAVRLDRSGAAEMSCISGVGGGVPALTRVARSGRPILALDGCALSCVKACLASVDVVPDRHLVLNRLGATKRQHGVCTEAEEAETWDAVQQALAEVRGAMEGHHHHHH | soluble |
| MATTQQSSTKQDILEYLLKEVQATSLELAEVLEVSPQAIRRHLKDLETDNLVVYFVPEQVGMGRPQHLYQLSQRGREQLQRNVNRLSDGYGDFAVSLLDTLAATVGREQVKTILQKQWERKAQEYRERVGTGSLQERVANLVELRKAEGFMAEFYPVESDSAHSERFIFMEHTCAISNVAESFPSICGHELEMFAAILPDCTVKRTHWLIDGEHRCGYLVQRSSGVTGVTEVEN | not soluble |
| MGSDKIHHHHHHMLQQVPTRAFHVIAKPSGSDCNLNCDYCFYLEKQSLYREKPVTHMDDDTLEAYIRHYIAASELQNEVAFTWQGGEPTLLGLEFYRRAVALQAKYGAGRKISNSFQTNGVLLDDEWCAFLAENNFLVGLSLDGPAEIHNQYRVTKGGRPTHKLVMRALTLLQKHHVDYNVLVCVNRTSAQQPLQVYDFLCDAGVEFIQFIPVVERLADETAVRDGLKLHAPGDIQGELTEWSVRPDEFGEFLVAIFDHWIKRDVGKIFVMNIEWAFANFVGAPGAVCHHQPTCGRSVIVEHNGDVYACDHYVYPQYRLGNMHQQTIAEMIDSPQQQVFGEDKFKQLPAQCRSCNVLKACWGGCPKHRFMLDASGKPGLNYLCAGYQRYFRHLPPYLKAMADLLAHGRPASDIMQAHLMVVNK | not soluble |
| MGSDKIHHHHHHMITIKEYVVPKSLDEAYELLISRKNNIILGGCGFLKLGSKNIGSAIDLKDLALDYINETDDSILIGADTSLRTLELNKVIKNYCNGVISNAVSNIVGVQFRSGARVGASVFAKYGFSDLIPSLLVVDAKVKLYKKGVMNLADFLENELEKDILIEVILPKKDAIGVFDSIRKCTGDFAVLNGAMLKEGSIYKIAIGARPRRAKIAYKASEILSLENDIEKAGEVSSEELSFGSNIRGSKEYRKDMAKALVVRMYNSIGGECDGK | not soluble |
| MSLYEWLNALPKAELHLHLEGTLEPELLFALAERNRIALPWNDVETLRKAYAFNNLQEFLDLYYAGADVLRTEQDFYDLTWAYLQKCKAQNVVHVEPFFDPQTHTDRGIPFEVVLAGIRAALRDGEKLLGIRHGLILSFLRHLSEEQAQKTLDQALPFRDAFIAVGLDSSEVGHPPSKFQRVFDRARSEGFLTVAHAGEEGPPEYIWEALDLLKVERIDHGVRAFEDERLMRRLIDEQIPLTVCPLSNTKLCVFDDMSQHTILDMLERGVKVTVNSDDPAYFGGYVTENFHALQQSLGMTEEQARRLAQNSLDARLVKEGHHHHHH | soluble |
| MGSDKIHHHHHHMNKPERPSHLAAARREPTHYLTADERAAKGRALRDTVPRGSQSGWQAPEDRRDPIELLNESNAGRILDLVPIRYGRMAASPFAFYRGSASLMAADLATTPSSGIRVQACGDAHLMNFGGFATPERNIIFDINDLDETLPAPFEWDLKRLAASLAIAAEHLALPKSDAARVVTDVVREYRERMFNYGWMRALDVWYDRIDLQKYEDRSGDPEIVAAARKRLAQRIEGERRKTVPDYLYPKLVSEEGAKPRIKDEPPLIFHPTEELAPGMGSDYAQAIASYRSSLAEHVRVLFDRFHFFDMAIKVVGVGSVGTMCGVGLFLAADNDPLFLQVKEARASVLEPYAGKSLHANHGERVIAGQRLMQAASDVFLGWTRGENGRDFYLRQLRDMKLSAVIEDWDTGMLRQYGRMCAHALARAHARSGDAAMMAGYMGSGQAFDDAICEFATEYCSQNRSDFRTFVAAIREGRIEARLEAN | not soluble |
| MGLLIEGRWHDQWYESGKDGAFQREQAQRRNWVTADGRPGPSGEGGFAAEAGRYHLYVSLACPWAHRTLILRKLKGLEQLIDVSVVSWLMRENGWTFDSAHGSSGDALDHFDFMHQRYTADTADYTGRVTVPVLWDKQQQRIVSNESAEIIRMFNSAFDGLTGNGLDFYPQPLRARIDELNARIYPALNNGVYRAGFATSQQAYETAFDDVFAELDALEALLDKQRYLAGEYLTEADVRLFTTLIRFDAVYHGHFKCNLRRIADYPNLSNWLRELYQWPGIAETVDFAHIKGHYYASHTTINPTGIVPKGPLQDFSRAHDRQRLSGQGVWCRGLEHHHHHH | not soluble |
| LITPQYKSEAKLYVLSKETTLTSLADLQIGSQLTQDYKILVGSRPVLQGVVDHMKLDMTYRKLEKKLTIDNPNNTRILTLTIKDPNPYLAKSIVDEVANTASDYIGEIMEMVPPKLIEDGEVASEKASPNVLKNT | not soluble |
| MGSDKIHHHHHHMSRRLPPLNAVKAFEAAARHLSFTRAAEELFVTQAAVSHQIKALEDFLGLKLFRRKNRSLLLTEEGQSYFLDIKDIFTQLSDATDRLLARSAIGSLTVSMSPSFAIQWLVPRLAKFSEKNPDIDVRIKAVDSEEGSLTDDVDVAIYYGQGSWPGLRADKLRNEVLIPVCSPMLLNGHKPLETPADLKHHTLLHDMSRHDWQAWFRQCGVTDVNVNQGPIFSHSSLVLQAAAHGQGVALGYSVLARPDIKAGRLVVPFQEVLVSKDAYYLVCQQNHAELGKIVAFREWMLDMFAEESRSELLPA | not soluble |
